Source: patent US20020035736A1

What was measured:
[1] = target: native human HER2 (human) (UniProt P04626); experiment: cell-based or functional assay
[2] = target: native human HER2 (human) (UniProt P04626); experiment: inhibition of 125I-rHRGβ1 binding to MCF7 monolayers on ice; labeled ligand rHRGβ1

Row | Substance | HRG stimulation of p180 tyrosine phosphorylation in MCF7 cells [1] | maximum inhibition of HRG binding [2] | inhibition of cell proliferation of SK-BR-3 cells (crystal violet) [1]
1 | murine monoclonal antibody 2C4 | < 25 % of control | 74% | 
2 | murine monoclonal antibody 4D5 |  |  | 66%
